One molecule from PMC3945083 can be followed below.

For one series, the target named is Flag-PARP-1 (UniProt P09874 1-1014). As to the kind of experiment: EMSA. For orientation: In EMSA bound probe runs differently from free probe, usually more slowly.
The target in a further series is PARP-1 (purified) (UniProt P09874 1-1014). Kind of series: pull-down.
PARP-1 (purified), sequence (P09874 whole entry): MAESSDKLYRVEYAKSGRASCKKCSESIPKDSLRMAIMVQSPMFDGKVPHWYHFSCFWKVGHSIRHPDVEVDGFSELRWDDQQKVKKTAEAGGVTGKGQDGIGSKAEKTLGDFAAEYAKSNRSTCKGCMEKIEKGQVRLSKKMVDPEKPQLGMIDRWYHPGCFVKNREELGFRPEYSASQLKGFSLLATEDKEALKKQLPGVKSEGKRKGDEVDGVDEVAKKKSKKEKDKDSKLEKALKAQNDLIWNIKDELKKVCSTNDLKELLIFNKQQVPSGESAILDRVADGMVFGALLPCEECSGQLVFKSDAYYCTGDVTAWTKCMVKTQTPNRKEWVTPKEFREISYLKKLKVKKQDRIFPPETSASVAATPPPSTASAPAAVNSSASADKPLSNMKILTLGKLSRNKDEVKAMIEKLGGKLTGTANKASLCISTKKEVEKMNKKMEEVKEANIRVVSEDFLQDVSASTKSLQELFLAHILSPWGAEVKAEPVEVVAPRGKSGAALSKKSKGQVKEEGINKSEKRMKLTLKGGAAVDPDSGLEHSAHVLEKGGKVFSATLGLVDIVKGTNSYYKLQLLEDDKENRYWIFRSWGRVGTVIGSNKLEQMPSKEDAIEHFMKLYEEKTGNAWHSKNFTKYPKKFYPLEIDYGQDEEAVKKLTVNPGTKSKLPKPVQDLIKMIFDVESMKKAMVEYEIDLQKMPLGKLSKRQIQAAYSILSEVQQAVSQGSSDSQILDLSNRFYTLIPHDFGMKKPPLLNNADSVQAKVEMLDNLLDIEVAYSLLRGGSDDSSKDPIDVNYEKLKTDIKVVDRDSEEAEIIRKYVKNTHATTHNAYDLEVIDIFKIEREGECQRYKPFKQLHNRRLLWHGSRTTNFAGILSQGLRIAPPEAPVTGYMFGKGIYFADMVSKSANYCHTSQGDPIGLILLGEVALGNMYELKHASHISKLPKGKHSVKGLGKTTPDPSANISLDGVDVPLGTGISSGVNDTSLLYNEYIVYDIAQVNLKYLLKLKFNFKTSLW

Flag-PARP-1, sequence (P09874 whole entry): as above

B1: WT NQO1-ARE (dsDNA)
DNA 1: AAATCGCAGTCACAGTGACTCAGCAGAATCTGAGCCTAGGG
DNA 2: CCCTAGGCTCAGATTCTGCTGAGTCACTGTGACTGCGATTT
For the molecule B1, the binding result with Flag-PARP-1 and with PARP-1 (purified) was “binds” each time.
